Experiments:
[1] = molecular target: T1, A1-A2 domain of human MICA*001 with C-terminal 6x-His tag (monomer) (human, UniProt Q29983 24-205); assay: Octet BLI, Fc-iNKG2D.AF on AHC tips, monomeric ligand (FIG. 3A)
T1 construct: range 24-205; also called MIC-His ligand
T1 sequence: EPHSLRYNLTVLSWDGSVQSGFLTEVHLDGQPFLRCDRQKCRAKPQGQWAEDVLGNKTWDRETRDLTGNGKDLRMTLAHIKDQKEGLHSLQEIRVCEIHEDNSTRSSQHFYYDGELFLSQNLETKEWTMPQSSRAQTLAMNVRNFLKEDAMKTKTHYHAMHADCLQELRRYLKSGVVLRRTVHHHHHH
Excerpt: (§1) Library design and phage panning performed was as described for iNKG2D. […] Data are representative of two experiments. […] Error bars represent ±SD of technical replicates.

[2] = molecular target: T2, A1-A2 domain of human ULBP3 with C-terminal 6x-His tag (monomer) (human, UniProt Q9BZM4 30-212); assay: as above
T2 construct: range 30-212; also called MIC-His ligand
T2 sequence: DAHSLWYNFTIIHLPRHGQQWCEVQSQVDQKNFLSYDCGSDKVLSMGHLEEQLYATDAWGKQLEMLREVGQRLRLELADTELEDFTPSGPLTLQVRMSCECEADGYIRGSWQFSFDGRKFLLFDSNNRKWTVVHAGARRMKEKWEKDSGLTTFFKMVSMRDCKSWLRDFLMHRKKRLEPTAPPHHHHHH
Excerpt: as §1

[3] = molecular target: T3, A1-A2 domain of human MICB with C-terminal 6x-His tag (monomer) (human, UniProt Q29980 24-205); assay: Octet BLI, response against concentration (legend: monomeric ligands; axis on the sheet: nM Fc-iNKG2D.AF)
T3 construct: range 24-205; also called MIC-His ligand
T3 sequence: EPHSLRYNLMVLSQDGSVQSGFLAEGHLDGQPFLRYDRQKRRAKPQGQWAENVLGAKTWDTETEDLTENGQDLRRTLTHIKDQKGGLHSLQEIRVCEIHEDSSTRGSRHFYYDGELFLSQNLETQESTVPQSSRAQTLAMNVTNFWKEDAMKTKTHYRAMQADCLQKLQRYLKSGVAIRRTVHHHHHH

- binding result [1]: no binding
- binding result [2]: no binding
- binding result [3]: binds
B1: Fc-iNKG2D.AF (NKG2D ectodomain Y152A/Y199F fused to the C-terminus of human IgG1 Fc) (Fc fusion)
chain: IEGRFLNSLFNQEVQIPLTESYCGPCPKNWICYKNNCYQFFDESKNWYESQASCMSQNASLLKVYSKEDQDLLKLVKSAHWMGLVHIPTNGSWQWEDGSILSPNLLTIIEMQKGDCALYASSFKGFIENCSTPNTYICMQRTV
notes: range 78-216; also called Fc-NKG2D.AF; not shown: human IgG1 Fc

From patent US20240287202A1 (XYPHOS BIOSCIENCES, published 2024)
